Measurements: publication PMC4522062, “Obatoclax is a direct and potent antagonist of membrane-restricted Mcl-1 and is synthetic lethal with treatment that induces Bim” (BMC Cancer, 2015)

Tests used:
[1] = target: N-Flag-human Mcl-1 C16A, C286A, Δ328-361, with a carboxyl-terminal hexa-His tag and a terminal Cys (human) (UniProt Q07820)
[2] = target: the molecule itself; test: cross-linking; Bak conjugated onto liposomes (2 mol% Mal-PEG3-PE, 1 mol% DOGS-NTA-Ni, 2 mg lipid/ml), 100 mM KCl, 10 mM Hepes pH 7.0, 1 h at room temperature with Bim BH3 peptide (…-OH); proteoliposomes recovered by centrifugation; 0.5 mM BS3, 1 h at room temperature; SDS-PAGE and anti-Bak immunoblot

Chain of N-Flag-human Mcl-1 C16A, C286A, Δ328-361, with a carboxyl-terminal hexa-His tag and a terminal Cys (human) (Q07820 1-327 C16A/C286A): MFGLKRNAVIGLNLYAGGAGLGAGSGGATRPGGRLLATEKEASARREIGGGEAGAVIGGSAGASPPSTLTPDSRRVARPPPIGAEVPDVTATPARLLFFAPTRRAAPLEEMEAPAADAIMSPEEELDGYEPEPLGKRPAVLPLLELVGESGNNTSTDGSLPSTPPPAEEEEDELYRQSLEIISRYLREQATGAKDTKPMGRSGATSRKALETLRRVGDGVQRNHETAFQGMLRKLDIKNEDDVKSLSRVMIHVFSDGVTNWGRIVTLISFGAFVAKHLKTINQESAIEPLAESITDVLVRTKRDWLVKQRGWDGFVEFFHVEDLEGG

tBid-induced (40 nM), Bak-dependent calcein release from proteoliposomes: molar excess of Noxa BH3 peptide relative to Mcl-1 that overcame the inhibition by Mcl-1 (molar excess relative to Mcl-1) [1]	Molecule	binding result [2]
2.5	Noxa BH3 peptide	–
–	N-Flag-human Bak C14A, C166A, ΔC186-211, with a carboxyl-terminal hexa-His tag and a terminal Cys (domain or fragment, UniProt Q16611 1-185, looked up, terminal Cys linked covalently to the liposome lipid Mal-PEG3-PE (where that lipid was included), Bak, human; the C-terminal TM segment (ΔC186-211) replaced by 6 His residues and a unique terminal Cys; The pET151 vector may add further N-terminal residues; also called BakΔC*; surface anchored Bak; source: E. coli BL21Star (pET151 vector), purified from the soluble extract on Ni2+-NTA resin; not shown: His6 followed by a terminal Cys, C-terminal, kept) MASGQGPGPPRQEAGEPALPSASEEQVAQDTEEVFRSYVFYRHQQEQEAEGVAAPADPEMVTLPLQPSSTMGQVGRQLAIIGDDINRRYDSEFQTMLQHLQPTAENAYEYFTKIATSLFESGINWGRVVALLGFGYRLALHVYQHGLTGFLGQVTRFVVDFMLHHAIARWIAQRGGWVAALNLGN	binds
